{
  "source": "the nanobody polyreactivity screen of Harvey et al. (2022)",
  "data": [
    {"assay": "yeast display, Sf9 membrane polyspecificity reagent, FACS + sequencing; frameworks hold sequencing errors", "in_short": "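Polyreactivity labels are assigned by the sorting gate from which each nanobody was recovered. The gates were low and high (top ~1%), set on anti-HA fluorescence for expression and streptavidin fluorescence for reagent binding. Before sorting, galactose-induced (36–48 hours) yeast display cells were stained for 1 hour at 4 °C with 10% biotinylated, detergent-solubilized Sf9 membrane reagent.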", "values": [
      {"sequence": "QVQLVESGGGLVPAGGSLRLSCAASGRIYARNAMGWYRKAPGKERDLVAAISSRGSSTYYADSVKGRFTISRDTAKNTVSLQMNSLKPEDTAVYYCNAYYSVYPPGYDYWGQGPQVTVSS", "polyreactivity (PSR sort gate)": "high polyreactivity"},
      {"sequence": "QVQLVESGGGLVQAGGSLRLSCAASGSPFGSNAMGWYRQAPGKERELVAAISYGGDRTYYADSVKGRFTISRDNAKNTVYLQMISLKPEDTALYYCNARIYKGYNYWGQGTQVTVSS", "polyreactivity (PSR sort gate)": "high polyreactivity"},
      {"sequence": "QVQRVESGGGLVQAGGSLRLSCAASGIIFRGYAMGWYRQAPGKERELVAAITSSGARTYYADSVKGRFTISRDNAKNTVYLQMNSLKPDDTAVYYCNATSSVRRYDSWGQGTQVTVSS", "polyreactivity (PSR sort gate)": "high polyreactivity"},
      {"sequence": "QVQRVESGGGLVQAGGRLRLSCAASGSISVAKAMGWYRQAPGKERELVAAITDSGDDTYYADSVKGRFTISRDNAKNTVYLQMNSLKPEDTAVYYCAAGLRLDLGAMYYWGQGTQVTVSS", "polyreactivity (PSR sort gate)": "low polyreactivity"},
      {"sequence": "QVQLVESGGGLVQAGGSLRLSSAASGRTFFGYAMGCYRQAPGTERELVAVISYSDGSTYYADSVKGRFTISRDNAKNTVYLQMNSLKPEDTAVYYCNARSRVGNSGADYDYWGQGTQETVSS", "polyreactivity (PSR sort gate)": "low polyreactivity"},
      {"sequence": "QVNLVQSAGGLVQAGCSLRLSCPASGFILYKNAMGRYRQKPGKERELVAISSSGGSTYYADSVKGRFTISRENAKNTVYLLMNSLKPEDTAVYYCGAYIYGTYYYWGQGTQVTVSS", "polyreactivity (PSR sort gate)": "high polyreactivity"},
      {"sequence": "QLQLVESGGGLVQAGGSLRLSCAATGFIFRYYVMGWYRQAPGKERELVAAITSGSTYADSVKGRFTISRDNAKNTVYLQMISLKPEDTAVYYCAAVKSQRGGPYSRGGKFGYWGQGTQVTVSS", "polyreactivity (PSR sort gate)": "high polyreactivity"},
      {"sequence": "QVQLVESGGGLVQAGGSLRLSCAASGSTFVFYAMGWYRQAPGKERELVADITSGGRTSYADSVKGRFTISRDNAKNTVYLQLNSLKPEDTAVYYSAALTRWYAWYDYWGQGTQVTVSS", "polyreactivity (PSR sort gate)": "high polyreactivity"},
      {"sequence": "QVQLVESGGGLVQAGGSLRLSCAASGRTFRYYAMGWYRQAPGKERELVAAITSSGGSTYYADSVKGRFTISRDNAKNTVYLQMNSLKPEDTAVYYCNRTPYHAPWQDALYRYGYWGQGTQVTVSS", "polyreactivity (PSR sort gate)": "high polyreactivity"},
      {"sequence": "QVQLVESGGGLVQAGGSLRLSCAASGSTFTANALGWYRQAPGKERELVAAITKSGGDTYYADSVKGRFTISRDNAKNTVYLQMNSLKPEDTAVYYCAAESSYFVALTQFYTVEFYYWGQGTQVTVSS", "polyreactivity (PSR sort gate)": "low polyreactivity"},
      {"sequence": "QVQLVESGGGLVQAGGSLRLSCAASGSNFRDNGMGWYRQAPGKERELVAAINSGDSTYYADSVKGRFTISRDNAKNTVYLQMNSLKPEDTAVYYCNADDRRALSQRQYDWYDYWGQGTQVTVSS", "polyreactivity (PSR sort gate)": "low polyreactivity"},
      {"sequence": "QVQLVESGGGLVQAGGSLRLSCAASGFTFIRNAMGWYRQAPVKERELVAAISKSGGTTYYADSVKGRFTISRDNAKNTVYLQMNSLKPEDTAVYYCNKGIGRSDPDYRYYYWGQGTQVTVSS", "polyreactivity (PSR sort gate)": "high polyreactivity"},
      {"sequence": "QVQLVESGGGLVQAGGSLRLSCAASGIIFYVNDMGWYREAPGKVRELVADISGGTSTNYADSVKGRFTISRDNAKNTVYLQMNSLKPEDTAVYYCATAFIVPFPGSDYWGQGTQVTVSS", "polyreactivity (PSR sort gate)": "low polyreactivity"},
      {"sequence": "QVQLVESGGGLVQAGGSLRLSCPASGSIIYYAMGWSRQPPGKEREFVAAITKSGGSTYYADSVKGRFTFSRDNAKNTVYLQMNSLKPEDTAVYYCSARGTWAGFYYWGQGTQVTVSS", "polyreactivity (PSR sort gate)": "high polyreactivity"},
      {"sequence": "QVQLVESGGGLVQAGGSLRLTCAASGFTFGSYVMGWYRQAPGKERELVADISIRGGSTYYADSVKGRFTISRDNAKNTVYLQMHSLKPEDTAVYYCNADPAFYYWEGIVGGADYDYWGIGTQVTVSS", "polyreactivity (PSR sort gate)": "low polyreactivity"},
      {"sequence": "QVQLVDSGGGLVQAGGSLLLSCAASGFTFTIYAMGWNRQAPGKERELVATISGRAGRTYYADSVKGRFTISRDNAKNTVYLQMNSLKPEDTAVYYCNAGQWRYPGLYYYWGQGTQVTVSS", "polyreactivity (PSR sort gate)": "high polyreactivity"},
      {"sequence": "QVQLVESGGGLVQAGGSLRLSCAASGSTFRFYAMGWYRQAPGKERELVAAISSRAGSTYYADSVKGRFTISRDNAKNTVYLQMNSLKPEDTAVYYCNARTYSYRGYNYWGQGTQVTVSS", "polyreactivity (PSR sort gate)": "high polyreactivity"},
      {"sequence": "QVQLVESGGGLVQAGGSLRLSCAASGSIFVDYAMGWYRQAPGKEMELVAAISSGGGSTYYADSVKGRFTISRDNAKNTVYLQMNSLKPEDTAVYYCAASVYGQHAGPGRWYTFYYWGQGTQVTVSS", "polyreactivity (PSR sort gate)": "low polyreactivity"},
      {"sequence": "QVQLVESGGGLVQAGGSLRLSCASSGRTFYSYAMGWYRQAPGKERELVAGITWSGTSTYYADSVKGRFTISRDNWKNTVYLQMYSLKPEDTAVYYCAAATLYSGYDYWGQGTQVSVSS", "polyreactivity (PSR sort gate)": "low polyreactivity"},
      {"sequence": "QVQLVESGGGLVQAGGSLRLSCAASGRTFFGRNVMGWYRPAPGNDRELVAAITSSGASTYYADSVKGRFTISRDNAKNTVYLQMNSLKPEDTAVYYCAAVRYVWQGYDYWGQGTQVTVSS", "polyreactivity (PSR sort gate)": "high polyreactivity"},
      {"sequence": "QVQLVESGGGLVQAGGSLRLSCAASGSIFSPYAMGWYRQAPGKQRELVAAISKTGGSTYYADSVKGRFTISRDNAKNTVYLQMNSLKPEDTAVYYCATQGPRWVRHFDYWGQGTQVTVSS", "polyreactivity (PSR sort gate)": "low polyreactivity"},
      {"sequence": "QVQLVESGGGLVQAGGSLRLSCAASGFIFFRYDMAWYRQAPGKERELVAVITSSGSTNYADSVKGRFTISRDNAKNTVYLQMNSLKPEDTAVYYCNARGYWTWYRGYRMDYWGQGTQVTVSS", "polyreactivity (PSR sort gate)": "high polyreactivity"},
      {"sequence": "QVQLVESGGGLVQAGGSLRLSCAASGFTSKTNAMGWYRQAPGKERELVAGITRTGGSTYYADSVKGRFTISRDNAKNTVYLQMNSLKPEDTAVYYCAREYGDGYEYWGQGTQVTVSS", "polyreactivity (PSR sort gate)": "low polyreactivity"},
      {"sequence": "QVQLVESGGGLVQAGGSLRLSCAASGFIFGIYAMGWYRQAPGKERELVARISRSGVSTYYADSVKGRFTISRDNAKNTVYLQMNSLKPEDTAVYYCNAYRGGLSSEHYYWGQGTQVTVSS", "polyreactivity (PSR sort gate)": "high polyreactivity"},
      {"sequence": "QVQLVESGGGLVQAGGSLRLSCAASGRTFPRYAMGWYRQAPGKERELVADISFSGDSTSYADSVKGRFTISRDNAKNTVYLQMNSLKPEDTAVYYCNADYKSTVFRYSGSRNYWGQGTQVTVSS", "polyreactivity (PSR sort gate)": "low polyreactivity"},
      {"sequence": "QVQLVESGGGLVQAGGSLRLSCAASGRTFAYNDMGWYRQAPGKERELVAAITSVASTYYADSVKGRFTISRDNAKNTVYLQMNSLKPEDTAVYYCAADTRSLRPRYQLYGEDSWGQGTQVTVSS", "polyreactivity (PSR sort gate)": "low polyreactivity"},
      {"sequence": "QFQLVESGGGLVQAGGSLRLSCAASGRTFPWYAMGWYRQEPGKDRELVAAISWTGGSTYYADSVKGRFTISRDNAKNTVYLQMNSLKPEDTAFYYCAASPWYLKYEYWGQGTQVTVSW", "polyreactivity (PSR sort gate)": "low polyreactivity"},
      {"sequence": "QVQLVESGGGLVQAGGSLRLSCAASGFTFYYYAMGWYRQAPGKERELVASISWRGGSTYYADSVKGRFTISRDNAKITVYLQMNSLKPEDTAVYYCAAQKRGSPGYRRDYWGQGTQVTVSS", "polyreactivity (PSR sort gate)": "high polyreactivity"},
      {"sequence": "QVQLVESGGGLVQAGGSLRFSCAASGITFTEYAMGWYTQAPGTERELVAAITGSGTSTYYADSVKGRFTISRDNAKNTVYLHMNSLKPEDTAVYYCAARTRGTAYNYWGQGTQVTVSS", "polyreactivity (PSR sort gate)": "high polyreactivity"},
      {"sequence": "QVQLVESGGGIVQAGGSLRLSCASSGFTFNLYAMGWYRHAPGNERELVAAINWSGGTYYADSVKGRFTISRDNAKNNVYLQMKILKPEDTAVYYCNARYVYHSSFAGFDYWGQGTQVTVSS", "polyreactivity (PSR sort gate)": "low polyreactivity"},
      {"sequence": "QVQLVESGGGLVQAGGILRLSCTASGFTLGHYAMGWYRQSPGKERELVAVITSGSSTNYADSVKGRFTISRDNAKNTVYLQMNSLKPEDTAVYYCAAEDQFFKWLYYFWGEGTQVTVSS", "polyreactivity (PSR sort gate)": "low polyreactivity"},
      {"sequence": "QVQLVESGGGLVQAGGSLRLSCAASGLTFYSYAMGWYRQAPGKERELVAAITISGGSTYADSVKGRFTISRDNAKNTVYLQMNSLKPEDTAVYYCAVDDFRNPDYDSWGQGTQVTVSS", "polyreactivity (PSR sort gate)": "low polyreactivity"},
      {"sequence": "QVQLVESGGGLVQAGGSLRLSCAASGFIFSRYGMGWYRQAPGKERELVAAISRTGGSTYYADSVKGRFTISRDNAKNTVYFQMNSLKPEDTAVYYCATAYSWRNADWFAYSYDYWGQGTQVTVSS", "polyreactivity (PSR sort gate)": "low polyreactivity"},
      {"sequence": "QVQLVESGGGLVQAGGSLRLSCAASGFIFGLNAMGWYRPAPGKERELVAAISYNGGSTYYADSVKGRFTISRDNAKNTVYLQMNSLKPEDTAVDYCNAYLYRKVGYRAYDYWGHGTQVTVSS", "polyreactivity (PSR sort gate)": "low polyreactivity"},
      {"sequence": "QVQLVESGGGLVQAGGSLRLSCAASGSIIYHYAMGWYRQAPGKERELVAAITSSGGSTYYADSVKGRFTISRDNAKNTVYLQMNSLKPEDTEVYYCAVESRGRAGGNYWGQGTQVTVSS", "polyreactivity (PSR sort gate)": "low polyreactivity"},
      {"sequence": "QVQLEESGGGLVQAGGSLRLSSPASGFIFRYYAMGWYRQAPGKERELVAAISGRGGSTYYADSVKGRFTISRDNAKNTVYLQMNSLKPEDTAVYYCAVDVPSQGGDYWGQGTQVTVSS", "polyreactivity (PSR sort gate)": "high polyreactivity"},
      {"sequence": "QVQLVESGGGLVQAGGSLRLSCAAYGSTFKPYAMGRYRQAPGKERELVADITGGGSTNYADSVKGRFTISRDNAKNTVYLQMNSLKPEDTAVYYCNADPVRSTYSYDYWGQGTQVTVSS", "polyreactivity (PSR sort gate)": "low polyreactivity"},
      {"sequence": "QVQLVESGGRLVQAGGSLRLSCAASGYIFERNAMGWYRPAPGKERELVAAITDDGDDTYYADSVKGRFTISRDNEKNTVYLQLYSLKPEDTAVYYCAKDLYYGDYYYWGQGTQVTVSS", "polyreactivity (PSR sort gate)": "low polyreactivity"},
      {"sequence": "QVQLVESGGGLFQAGGSLRLSCAASGRTFVKYDMGWYRHAPGKERELVAAISRRGGSTYYADSVKGRFTISRDNAKNTVYLQMNSLKPEDTAVYYCNAVHPKDVDSYRDRDYWGQGTQVTVSS", "polyreactivity (PSR sort gate)": "high polyreactivity"},
      {"sequence": "QVQLVESGGGLVQAGCSLRLTCAASGFIYLSYGMGWNRQAPGKERELVASITSDGGSTYYADSVKGRFTISRDNAKYTVYLQMNSLKPEDTAVYYCAADSVSPWYYGWYYRYRGYGYCGQGTQVTVSS", "polyreactivity (PSR sort gate)": "low polyreactivity"},
      {"sequence": "QVQLVESGGGLVQAGGSLRLSCAASGFILGTNAMGWYRQAPGKERELVAAISSGGGSTYYADSVMGRFTISRDNAKNTVYLQMNSQKPEDTAVYYCAADNVWGYPEDDYWGQGTQVTVSS", "polyreactivity (PSR sort gate)": "low polyreactivity"}
    ]}
  ]
}
